Measurements published in patent US20120258099.
Positions count from the first letter of the chain named.

What was measured:
[1] = tested on: T1, GST-TRIPα
T1 sequence: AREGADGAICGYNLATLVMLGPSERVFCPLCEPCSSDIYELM

[2] = tested on: GST [GST: P08515]
[3] = tested on: T2, GST-TRIPT16M/L17S
T2 sequence: T1 sequence with T16M, L17S

[4] = tested on: T3, GST-TRIPE32G
T3 sequence: T1 sequence with E32G

GST [GST: P08515], sequence (P08515 whole entry): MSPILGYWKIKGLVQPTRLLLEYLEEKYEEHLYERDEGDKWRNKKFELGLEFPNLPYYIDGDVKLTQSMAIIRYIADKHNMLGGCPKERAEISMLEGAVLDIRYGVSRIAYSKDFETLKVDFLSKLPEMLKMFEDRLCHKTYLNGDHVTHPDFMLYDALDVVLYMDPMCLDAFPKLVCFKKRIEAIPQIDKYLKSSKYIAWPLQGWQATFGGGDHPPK

MBP-Tgat (aa 1-255)
Tgat GEF activity on RhoA, kinetics fluorescence assay (kobs) [1]: GST-TRIPα, at the same concentrations, had no effect
Tgat GEF activity on RhoA, kinetics fluorescence assay (kobs) [2]: GST alone (not shown) ... had no effect
Tgat GEF activity on RhoA, kinetics fluorescence assay (kobs) [3]: inhibited Tgat GEF activity in a dose-dependent manner
Tgat GEF activity on RhoA, kinetics fluorescence assay (kobs) [4]: inhibited Tgat GEF activity in a dose-dependent manner
